Measured values: paper PMC12069617

Columns and labels:
[1] = target: progesterone receptor isoform A (PR-A), full-length, Strep II-tagged (human) (UniProt P06401); assay: SEC-MALS
[2] = target: steroid receptor coactivator 3 (SRC3), full-length, Strep II-tagged (human) (UniProt Q9Y6Q9); assay: SEC-MALS
Chain of steroid receptor coactivator 3 (SRC3), full-length, Strep II-tagged (human) (Q9Y6Q9 whole entry): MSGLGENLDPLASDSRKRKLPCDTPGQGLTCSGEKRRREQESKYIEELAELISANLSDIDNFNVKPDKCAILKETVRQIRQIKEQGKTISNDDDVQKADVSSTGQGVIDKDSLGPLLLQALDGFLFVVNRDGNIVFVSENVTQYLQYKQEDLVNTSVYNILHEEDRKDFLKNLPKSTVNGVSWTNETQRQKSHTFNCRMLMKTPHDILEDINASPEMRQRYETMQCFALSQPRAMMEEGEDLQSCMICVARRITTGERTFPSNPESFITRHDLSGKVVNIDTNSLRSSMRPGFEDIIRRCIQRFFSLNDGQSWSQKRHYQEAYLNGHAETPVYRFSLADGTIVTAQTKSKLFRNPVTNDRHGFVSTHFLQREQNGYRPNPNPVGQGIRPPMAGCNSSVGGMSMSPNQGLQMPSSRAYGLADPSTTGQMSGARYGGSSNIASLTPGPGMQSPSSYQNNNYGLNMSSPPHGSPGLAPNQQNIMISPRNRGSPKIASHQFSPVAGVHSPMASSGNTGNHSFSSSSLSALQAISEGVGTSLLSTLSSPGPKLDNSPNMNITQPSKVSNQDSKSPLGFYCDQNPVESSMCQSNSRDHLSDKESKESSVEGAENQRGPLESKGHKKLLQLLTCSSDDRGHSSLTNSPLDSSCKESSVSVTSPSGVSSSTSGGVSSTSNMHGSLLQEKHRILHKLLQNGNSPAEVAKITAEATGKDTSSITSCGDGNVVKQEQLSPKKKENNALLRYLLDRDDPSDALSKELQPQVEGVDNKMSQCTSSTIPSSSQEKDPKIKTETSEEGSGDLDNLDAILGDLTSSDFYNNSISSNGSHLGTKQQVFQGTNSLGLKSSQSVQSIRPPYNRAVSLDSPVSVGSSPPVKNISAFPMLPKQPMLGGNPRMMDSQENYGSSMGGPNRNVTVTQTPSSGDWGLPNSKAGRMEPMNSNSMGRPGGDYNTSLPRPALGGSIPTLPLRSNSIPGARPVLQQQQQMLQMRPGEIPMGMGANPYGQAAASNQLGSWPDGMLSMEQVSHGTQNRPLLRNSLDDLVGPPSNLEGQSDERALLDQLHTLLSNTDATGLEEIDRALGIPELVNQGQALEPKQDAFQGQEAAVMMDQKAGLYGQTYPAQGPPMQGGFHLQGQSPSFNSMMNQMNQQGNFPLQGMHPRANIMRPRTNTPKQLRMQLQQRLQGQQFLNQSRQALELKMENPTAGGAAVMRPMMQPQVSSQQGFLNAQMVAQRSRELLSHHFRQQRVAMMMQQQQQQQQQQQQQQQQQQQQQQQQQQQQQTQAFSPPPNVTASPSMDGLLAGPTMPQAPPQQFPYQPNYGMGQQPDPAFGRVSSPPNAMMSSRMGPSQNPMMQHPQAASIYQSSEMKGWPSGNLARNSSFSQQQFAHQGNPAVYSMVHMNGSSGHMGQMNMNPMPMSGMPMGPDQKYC

Chain of progesterone receptor isoform A (PR-A), full-length, Strep II-tagged (human) (P06401 165-933): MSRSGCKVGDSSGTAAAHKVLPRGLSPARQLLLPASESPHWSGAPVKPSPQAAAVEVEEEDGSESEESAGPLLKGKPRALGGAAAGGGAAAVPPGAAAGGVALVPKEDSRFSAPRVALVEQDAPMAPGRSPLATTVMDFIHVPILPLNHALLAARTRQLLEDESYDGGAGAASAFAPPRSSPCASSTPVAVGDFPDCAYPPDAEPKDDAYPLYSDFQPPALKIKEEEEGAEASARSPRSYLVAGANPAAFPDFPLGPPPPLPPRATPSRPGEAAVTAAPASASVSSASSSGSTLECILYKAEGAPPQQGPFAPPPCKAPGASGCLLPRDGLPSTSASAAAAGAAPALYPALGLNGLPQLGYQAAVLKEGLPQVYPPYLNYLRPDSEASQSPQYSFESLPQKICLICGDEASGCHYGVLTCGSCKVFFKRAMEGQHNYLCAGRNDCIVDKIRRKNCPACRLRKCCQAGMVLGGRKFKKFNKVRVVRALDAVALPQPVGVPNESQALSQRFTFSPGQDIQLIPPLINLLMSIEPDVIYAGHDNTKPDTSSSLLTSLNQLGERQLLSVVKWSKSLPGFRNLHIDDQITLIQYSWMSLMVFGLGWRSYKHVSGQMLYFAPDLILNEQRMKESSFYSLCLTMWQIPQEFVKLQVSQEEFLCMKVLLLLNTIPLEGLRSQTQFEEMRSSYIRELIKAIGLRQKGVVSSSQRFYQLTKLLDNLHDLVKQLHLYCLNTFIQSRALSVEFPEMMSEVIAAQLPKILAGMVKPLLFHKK

- stoichiometry N [1]: 0.5 p300 per PR
- stoichiometry N (p300 per SRC3) [2]: 1
Substance: histone acetyltransferase p300, full-length, Strep II-tagged, Q09472 1-2414
